Data published in US10006011.

Experiments:
[1] = test system: TALEN left L20 of FIG. 4B (Comparative Example 1) (synthetic construct); assay: cell_activity; settings: SSA assay HEK293T, reference pair with R17
[2] = test system: TALEN right R17 of FIG. 4B (Comparative Example 1) (synthetic construct); assay: cell_activity; settings: SSA assay HEK293T, reference pair with L20

Work on “TCCATTCCTATGACTGTAGATTTTTATCAGACTGAAGAGCTATTGTGTGAGTATA (double strand) [FIG. 4B TALEN target]” yielded an activity [1] of 1 relative and an activity [2] of 1 relative.
